Results as given in patent publication EP1098979B1 (Boehringer Ingelheim International GmbH, dated 2007).
Each block holds one molecule with its values, some of them ahead of it.

Tests used:
[1] = target: human fibroblast activation protein alpha (FAP) on the cell surface (human) (UniProt Q12884); test: flow cytometry, MF-SH cells with endogenous FAP, antibody at 4000 ng/ml
[2] = target: human fibroblast activation protein alpha (FAP) on the cell surface (human) (UniProt Q12884); test: flow cytometry, HT-1080FAP clone 33 cells, biotinylated antibody at 1.6 ng/ml, streptavidin-FITC
[3] = target: human fibroblast activation protein alpha (FAP) on the cell surface (human) (UniProt Q12884); test: flow cytometry, HT-1080FAP clone 33 cells, biotinylated antibody at 200.0 ng/ml, streptavidin-FITC
[4] = target: human fibroblast activation protein alpha (FAP) on the cell surface (human) (UniProt Q12884); test: flow cytometry, HT-1080FAP clone 33 cells, biotinylated antibody at 40.0 ng/ml, streptavidin-FITC
[5] = target: human fibroblast activation protein alpha (FAP) on the cell surface (human) (UniProt Q12884); test: competition flow cytometry, HT-1080FAP clone 33 cells, unlabelled competitor at 3.16 µg/ml against 1 µg/ml biotinylated cF19; signal of bound biotinylated cF19
[6] = target: human fibroblast activation protein alpha (FAP) on the cell surface (human) (UniProt Q12884); test: competition flow cytometry, HT-1080FAP clone 33 cells, unlabelled competitor at 31.66 µg/ml against 1 µg/ml biotinylated cF19; signal of bound biotinylated cF19
[7] = target: human fibroblast activation protein alpha (FAP) on the cell surface (human) (UniProt Q12884); test: flow cytometry, HT-1080FAP clone 33 cells, antibody at 500.0 ng/ml, FITC anti-human IgG
[8] = target: human fibroblast activation protein alpha (FAP) on the cell surface (human) (UniProt Q12884); test: flow cytometry, HT-1080FAP clone 33 cells, biotinylated antibody at 8.0 ng/ml, streptavidin-FITC
[9] = target: human fibroblast activation protein alpha (FAP) on the cell surface (human) (UniProt Q12884); test: flow cytometry, HT-1080FAP clone 33 cells, antibody at 0.8 ng/ml, FITC anti-human IgG
[10] = target: human fibroblast activation protein alpha (FAP) on the cell surface (human) (UniProt Q12884); test: competition flow cytometry, HT-1080FAP clone 33 cells, unlabelled competitor at 1.00 µg/ml against 1 µg/ml biotinylated cF19; signal of bound biotinylated cF19
[11] = target: human fibroblast activation protein alpha (FAP) on the cell surface (human) (UniProt Q12884); test: flow cytometry, HT-1080FAP clone 33 cells, biotinylated antibody at 1,000.0 ng/ml, streptavidin-FITC
[12] = target: human fibroblast activation protein alpha (FAP) on the cell surface (human) (UniProt Q12884); test: flow cytometry, HT-1080FAP clone 33 cells, antibody at 20.0 ng/ml, FITC anti-human IgG
[13] = target: human fibroblast activation protein alpha (FAP) on the cell surface (human) (UniProt Q12884); test: flow cytometry, HT-1080FAP clone 33 cells, antibody at 4.0 ng/ml, FITC anti-human IgG
[14] = target: human fibroblast activation protein alpha (FAP) on the cell surface (human) (UniProt Q12884); test: flow cytometry, HT-1080FAP clone 33 cells, biotinylated antibody at 5,000.0 ng/ml, streptavidin-FITC
[15] = target: human fibroblast activation protein alpha (FAP) on the cell surface (human) (UniProt Q12884); test: flow cytometry, HT-1080FAP clone 33 cells, antibody at 100.0 ng/ml, FITC anti-human IgG
[16] = target: human fibroblast activation protein alpha (FAP) on the cell surface (human) (UniProt Q12884); test: competition flow cytometry, HT-1080FAP clone 33 cells, unlabelled competitor at 10.00 µg/ml against 1 µg/ml biotinylated cF19; signal of bound biotinylated cF19
[17] = target: T1, recombinant membrane-bound human FAP solubilised in detergent extracts of transfected cells (293FAP 1/2, … (human, UniProt Q12884 1-760)); test: sandwich ELISA, detergent extract of 293FAP 1/2 cells on cF19-coated plates, HRP-streptavidin
T1 construct: Same protein as m5, but isolated from the cells; also called recombinant human FAP
T1 sequence (looked up): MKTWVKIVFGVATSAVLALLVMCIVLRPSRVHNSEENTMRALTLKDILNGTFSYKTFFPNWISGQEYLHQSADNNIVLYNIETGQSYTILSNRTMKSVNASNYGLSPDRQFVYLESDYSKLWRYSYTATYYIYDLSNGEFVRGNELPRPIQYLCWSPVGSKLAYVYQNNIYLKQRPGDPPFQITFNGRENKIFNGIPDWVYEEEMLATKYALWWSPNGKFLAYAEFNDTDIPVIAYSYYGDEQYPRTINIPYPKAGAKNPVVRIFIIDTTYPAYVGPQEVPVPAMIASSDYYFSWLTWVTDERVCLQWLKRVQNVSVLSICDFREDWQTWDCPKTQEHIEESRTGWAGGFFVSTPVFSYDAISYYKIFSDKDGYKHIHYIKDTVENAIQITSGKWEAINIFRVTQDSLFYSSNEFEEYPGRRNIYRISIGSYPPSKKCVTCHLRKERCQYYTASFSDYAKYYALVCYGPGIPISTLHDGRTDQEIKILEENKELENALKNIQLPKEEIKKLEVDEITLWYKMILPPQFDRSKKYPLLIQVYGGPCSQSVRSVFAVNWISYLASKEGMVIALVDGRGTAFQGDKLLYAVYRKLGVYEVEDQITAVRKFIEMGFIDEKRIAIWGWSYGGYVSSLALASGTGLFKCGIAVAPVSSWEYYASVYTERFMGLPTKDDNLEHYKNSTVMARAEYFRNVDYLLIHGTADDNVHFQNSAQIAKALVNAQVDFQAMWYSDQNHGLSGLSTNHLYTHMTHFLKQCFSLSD

[18] = target: T1, recombinant membrane-bound human FAP …; test: sandwich ELISA, cF19 as capture antibody
[19] = target: human fibroblast activation protein alpha (FAP) on the cell surface (human) (UniProt Q12884); test: flow cytometry, MF-SH cells with endogenous FAP, antibody at 1000 ng/ml
[20] = target: human fibroblast activation protein alpha (FAP) on the cell surface (human) (UniProt Q12884); test: flow cytometry, HT-1080FAP clone 33 cells, 1 µg/ml biotinylated cF19 without competitor (0.00 µg/ml)
[21] = target: human fibroblast activation protein alpha (FAP) on the cell surface (human) (UniProt Q12884); test: flow cytometry, MF-SH cells with endogenous FAP, antibody at 2000 ng/ml
[22] = target: human fibroblast activation protein alpha (FAP) on the cell surface (human) (UniProt Q12884); test: flow cytometry, MF-SH cells with endogenous FAP, antibody at 500 ng/ml

Mean fluorescence intensity [1]: 0.6 | Mean fluorescence intensity [2]: 0.3 | Mean fluorescence intensity [3]: 0.2 | Mean fluorescence intensity [4]: 0.2 | Mean fluorescence concentration [5]: 11.3 | Mean fluorescence concentration [6]: 10.3 | Mean fluorescence intensity [7]: 0.12 | Mean fluorescence intensity [8]: 0.2 | Mean fluorescence intensity [9]: 0.12 | Mean fluorescence concentration [10]: 9 | Mean fluorescence intensity [11]: 0.2 | Mean fluorescence intensity [12]: 0.12 | Mean fluorescence intensity [13]: 0.12 | Mean fluorescence intensity [14]: 0.2 | Mean fluorescence intensity [15]: 0.12 | Mean fluorescence concentration [16]: 9.8
Molecule: hIgG1 (human immunoglobulin, IgG1 subclass), negative control (antibody)

binding result [17]: binds
B1: LAHC (reshaped human anti-human FAP monoclonal antibody: F19 human reshaped light chain variable region version A with heavy chain variable region version C, … (antibody, V domains shown)
VH: QVQLVQSGAEVKKPGASVKVSCKTSRYTFTEYTIHWVRQAPGQRLEWIGGINPNNGIPNYNQKFKGRVTITVDTSASTAYMELSSLRSEDTAVYYCARRRIAYGYDEGHAMDYWGQGTLVTVSS
VL: DIVMTQSPDSLAVSLGERATINCKSSQSLLYSRNQKNYLAWYQQKPGQPPKLLIFWASTRESGVPDRFSGSGFGTDFTLTISSLQAEDVAVYYCQQYFSYPLTFGQGTKVEIKR
notes: The name joins light version A (LA) and heavy version C (HC); also called biotinylated LAHC; BIBH 1

binding result [18]: binds | Mean fluorescence intensity [1]: 3.6 | Mean fluorescence intensity [2]: 0.3 | Mean fluorescence intensity [3]: 4.5 | Mean fluorescence intensity [4]: 1.3 | Mean fluorescence concentration [5]: 4.8 | Mean fluorescence intensity [19]: 2.4 | Mean fluorescence concentration [6]: 1.2 | Mean fluorescence intensity [7]: 6.65 | Mean fluorescence intensity [8]: 0.5 | Mean fluorescence intensity [9]: 0.14 | Mean fluorescence concentration [20]: 11.2 | Mean fluorescence concentration [10]: 7.5 | Mean fluorescence intensity [11]: 18.1 | Mean fluorescence intensity [12]: 0.43 | Mean fluorescence intensity [13]: 0.17 | Mean fluorescence intensity [14]: 36.5 | Mean fluorescence intensity [21]: 3.3 | Mean fluorescence intensity [15]: 1.63 | Mean fluorescence intensity [22]: 1.8 | Mean fluorescence concentration [16]: 1.3
B2: chimeric F19 antibody (cF19), mouse F19 variable regions joined to human kappa and gamma-1 constant regions (antibody, human IgG1, kappa, V domains shown)
VH: VQLQQSGPELVKPGASVKMSCKTSRYTFTEYTIHWVRQSHGKSLEWIGGINPNNGIPNYNQKFKGRATLTVGKSSSTAYMELRSLTSEDSAVYFCARRRIAYGYDEGHAMDYWGQGTSVTVSS
VL: DIVMSQSPSSLAVSVGEKVTMSCKSSQSLLYSRNQKNYLAWFQQKPGQSPKLLIFWASTRESGVPDRFTGSGFGTDFNLTISSVQAEDLAVYDCQQYFSYPLTFGAGTKLELKR
notes: Biotinylated in some assays; also called biotinylated cF19
